Laboratory results as given in patent US20210095028A1 (NANJING LEGEND BIOTECH, published 2021).

What was measured:
[1] = molecular target: T1, human TIGIT over-expressed on cells (human, UniProt Q495A1 22-244); assay: cell-based or functional assay
T1 sequence: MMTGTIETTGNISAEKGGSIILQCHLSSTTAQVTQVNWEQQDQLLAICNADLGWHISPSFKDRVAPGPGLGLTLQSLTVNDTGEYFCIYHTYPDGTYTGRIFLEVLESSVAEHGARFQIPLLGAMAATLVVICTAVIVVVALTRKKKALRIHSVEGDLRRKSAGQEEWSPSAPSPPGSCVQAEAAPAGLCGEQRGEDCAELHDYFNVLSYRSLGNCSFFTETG

[2] = molecular target: T1, human TIGIT over-expressed on cells; assay: competition FACS, CHO cells expressing human TIGIT; competitor PVR recombinant protein
Method: The mixture was equilibrated for 30 minutes at room temperature, and washed three times with FACS buffer (PBS containing 1% BSA). PE/Cy5 Streptavidin secondary antibody was then added to the mixtures and incubated for 15 minutes at room temperature. Subsequently, the cells were washed with FACS buffer and analyzed by flow cytometry. Data was analyzed with PRISM™ (GraphPad Software, San Diego, Calif.) using non-linear regression, and IC₅₀ values were calculated (FIGS. 4A-4B and Table 6).

[3] = molecular target: T1, human TIGIT over-expressed on cells; assay: cell-based or functional assay; remark: listed apart in the source
[4] = molecular target: T2, cynomolgus TIGIT over-expressed on CHO-K1 cells (cynomolgus, UniProt A0A7N9I9V4 89-312); assay: FACS, CHO-K1 cells over-expressing cynomolgus TIGIT
T2 construct: whole, on cells; also called CHO-K1/cynomolgus TIGIT cells
T2 sequence (A0A7N9I9V4 entry or part of it): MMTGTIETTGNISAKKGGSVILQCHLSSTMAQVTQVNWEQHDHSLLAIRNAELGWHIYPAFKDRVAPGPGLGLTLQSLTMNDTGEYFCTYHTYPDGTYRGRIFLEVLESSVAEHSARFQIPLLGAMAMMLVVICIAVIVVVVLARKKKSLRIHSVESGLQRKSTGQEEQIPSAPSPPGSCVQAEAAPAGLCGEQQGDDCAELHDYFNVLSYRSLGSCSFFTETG
Method: (§1) The mixture was equilibrated for 30 minutes at room temperature and washed three times with FACS buffer (PBS containing 1% BSA). iFluor labeled goat anti-mouse IgG as the secondary antibody was added and incubated at room temperature for 45 min. Finally, the cells were washed 3 time with PBS, and the signal was read by FACS BD Calibur. Data was analyzed with PRISM™ (GraphPad Software, San Diego, Calif.) using non-linear regression and EC₅₀ values were calculated.

[5] = molecular target: T1, human TIGIT over-expressed on cells; assay: FACS, CHO-K1 cells over-expressing human TIGIT
Method: as §1

[6] = molecular target: T3, Human TIGIT protein with HIS tag (human, UniProt Q495A1 22-141); assay: SPR Biacore T200; antibody Fc-captured, TIGIT-His analyte
T3 construct: A soluble analyte is probably only the extracellular part; also called human TIGIT recombinant protein; not shown: HIS tag
T3 sequence: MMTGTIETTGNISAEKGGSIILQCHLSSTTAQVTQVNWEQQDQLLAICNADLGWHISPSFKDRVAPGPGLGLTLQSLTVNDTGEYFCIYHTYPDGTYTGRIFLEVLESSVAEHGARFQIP
Method: Binding kinetics of mouse anti-human TIGIT monoclonal antibodies to human TIGIT were determined using a Surface Plasmon Resonance (SPR) biosensor, BIACORE® T200 (GE Healthcare; Little Chalfont, United Kingdom). […] Each mouse anti-human TIGIT monoclonal antibody was immobilized on the sensor chip through the Fc capture method. Human TIGIT protein with HIS tag was used as the analyte. The dissociation (kd) and association (kₐ) rate constants were obtained using the BIACORE® T200 evaluation software. The apparent equilibrium dissociation constants (KD) were calculated from the ratio of kd over kₐ.

Binder	IL-2 secretion in T cell activation, Bottom (best-fit) [1]	IL-2 secretion in T cell activation, EC50 [1] [nM]	IL-2 secretion in T cell activation, Top (best-fit) [1]	Bottom (best-fit) [2]	IC50 [2] [nM]	Top (best-fit) [2]	luciferase signal in T cell activation, Bottom (best-fit) [3]	luciferase signal in T cell activation, EC50 [3] [nM]	luciferase signal in T cell activation, Top (best-fit) [3]	Bottom (best-fit) [4]	EC50 [4] [nM]	Top (best-fit) [4]	Bottom (best-fit) [5]	EC50 [5] [nM]	Top (best-fit) [5]	Kd [6] [nM]	koff [6] [s⁻¹]	kon [6] [M⁻¹ s⁻¹]
64G1E9B4 (antibody, V domains shown, Mouse monoclonal antibody; also called mouse anti-human TIGIT monoclonal antibody 64G1E9B4) VH: EVQLQQSGPELVKPGASVKISCKTSGYTFTEHVIHWVKQSHGKSLEWIGGFNPNHDGTIYNQIFRGKATLTVDKSSSTAYMELRSLTSEDSAVYFCTRAAKLLFAMDYWGQGTSVTVSS VL: DIVMTQSHKFMSTSIGDRVSITCKASQHVSNAVVWYQQKPGQSPKLLIYSPSYRFTGVPDRFTGSGSGTDFTFTISSVQAEDLAVYYCQQHYSTPWTFGGGTKLEIK	111	0.82	283	9.5	1	67.1	5.7	1.64	124	15.3	1.58	455	15.3	0.61	113	0.23	0.00015	650000
104G12E12G2 (antibody, V domains shown, Mouse monoclonal antibody; also called mouse anti-human TIGIT monoclonal antibody 104G12E12G2) VH: EVQLQQSGPELVKPGASVKISCKASGYSFTGSYIHWVKQNHVKTLEWIGRINPHNGPTSYNQNFKGKASLTVDLSSSTAYMEVHSLTSEDSAVYYCVRYDGYYGGALDYWGQGTSVTVSS VL: DIQMTQSPSSLSASLGERVSLTCRASQEISGYLSWLQQKPDGTIKRLIYAASTLDSGVPKRFSGSRSGSDYSLTISSLESEDFADYYCLQYASYPYTFGGGTKLEIK	108	3.31	189	8.9	2.4	56.9	6	6.42	147	7	11.1	80.6	15.5	0.73	96.9	2.3	0.00083	370000
83G6H11C12 (antibody, V domains shown, Mouse monoclonal antibody; also called mouse anti-human TIGIT monoclonal antibody 83G6H11C12) VH: EVMLVESGGGLVKPGGSLKLSCAASGFTFSFYTMSWVRQTPEKRLEWVATISSGGGSTYYSDSVKGRFTISRDNAKNNLYLQMTSLRSEDTALYYCSRSLPVDYWGQGTTLTVSS VL: QIVLTQSPAIMSASLGERVTMTCTASSSVSSSYLHWYQQKPGSSPKLWIYSTSNLASGVPARFSGSGSGTSYSLTISSMEAEDAATYYCHLYHHSPYTFGGGTKLEIK	104	0.83	171	12.9	0.7	70.2	9.6	4.4	145	16.1	1	326	9.57	0.68	115	0.7	0.00043	610000
92E9D4B4 (antibody, V domains shown, Mouse monoclonal antibody; also called mouse anti-human TIGIT monoclonal antibody 92E9D4B4) VH: EVMLVESGGGLVKPGGSLKLSCAASGFTFSFYTMSWVRQTPEKRLEWVATISGGGGDTYYPDNVKGRFTISRDNAKNNLYLQMSSLRSEDTALYYCARSLPVDFWGQGTTLTVSS VL: QIVLTQSPAIMSASLGERVTMTCTASSSVSSTYLHWYQQKPGSSPKFWIYSTSNMASGVPARFSGSGSGTSYSLTISSMEAEDAATYYCHYYHRSPYTFGGGTKLEIK	106	3.36	274	10.3	2	65.5	3.4	3.9	141	17.7	1.16	348	7.99	0.8	97	0.57	0.00041	710000
121C2F10B5 (antibody, V domains shown, Mouse monoclonal antibody; also called mouse anti-human TIGIT monoclonal antibody 121C2F10B5) VH: EVQLVESGGDLVKPGGSLKLSCAASGFTFSTYGMSWVRQTPDKRLEWVATISSGGSYTYYPDSVKGRFTISRDNAKNTLYLQMSSLKSEDTAMYYCARQVHYFYAMDYWGQGTSVTVSS VL: DIQMTQSPASLSVSVGETVTITCRASENIYSNLAWYQQKQGKSPQVLVYAATNLADGVPSRFSGSRSGTQYSLKINSLQSEDFGSYYCQHFWDNAYTFGGGTKLEIK	96.2	1.02	197	11.8	0.6	68.8	5.4	4.38	153	7.6	10.2	120	14.2	0.36	92.7	0.72	0.00093	1.3e+06
